Results taken from the nanobody polyreactivity screen of Harvey et al. (2022).

test: yeast display, Sf9 membrane polyspecificity reagent, FACS + sequencing; frameworks hold sequencing errors
Outline: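 Galactose induction of a Saccharomyces cerevisiae BJ5465 synthetic nanobody display library ran 36–48 hours. The cells were then stained for 1 hour at 4 °C with 10% biotinylated, detergent-solubilized Sf9 membrane reagent, pulled down on streptavidin microbeads and FACS-sorted into low and high (top ~1%) gates on expression and reagent-binding fluorescence. Labels for polyreactivity follow the gate of origin.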

Sequence | polyreactivity (PSR sort gate)
QVQLVESGGGLVQAGGSLRLSCAASGMIFQDNAMGWYSQAPGKERELVAAITTGGITYYADSVKGRFTISRDNAKNTVYLQMNSLKPEDTAVYYCATDPVKSGYQRYYYWGQGTQVTVSS | low polyreactivity
QVQLVESGGGLVQAGGSLRLSCAASGMTFFTYSMGWYRQAPGKERELVAAISGSGGSTYYADSVKGRFTISRDNAKNTVYLQMNSLKPEDTAVYYCAKRSWIVYDYWGQGTQVTVSS | low polyreactivity
QVQLVESGGGLVQAGGSLRLSCAASGMVWYRQAPGKERELVAAITSGDSTNYADSVKGRFTISRDNAKNTVYLQMNCLKPEDTSVYYCAADPDYLYAYFYWGQGTQVSVSS | low polyreactivity
QVQLVESGGGLVQAGGSLRLSCAASGNAMGWYRQAPGKERELVAAITYGGTTTYYADSVKGRFTISRDNAKNTVYLQMNSLKPEDTAVYYCAADYVFVATPLRYDYWGQGTQVTVSS | low polyreactivity
QVQLVESGGGLVQAGGSLRLSCAASGNICITYAMGWYRQAPGKEREFVAAISRRRGRTYYADSVKARFTISRDKAKNTVYLQMNSLKPVDTAVYYCAADPATSVYGGLNYWGQVTQVTVSS | high polyreactivity
QVQLVESGGGLVQAGGSLRLSCAASGNIFANYAMGWYRQAPGKERELVAAIRWSASRTYYADSVKGRFTISRDNAKNTVYLQMNSLIPEDTAVYYCAATIYTFWDYYYDYWGQGTQVTVSS | high polyreactivity
QVQLVESGGGLVQAGGSLRLSCAASGNIFAPNAMGWDRQAPGKERELVAAISRSGGSTHYADSVKGRFTISRDNAKNTVYLQMNSLKPEDTAVYYCAAGWYGRYTSKMGYWGQGTQVTVSS | high polyreactivity
QVQLVESGGGLVQAGGSLRLSCAASGNIFAWYAMGWYRQAPGKERELVADISSRGGSSYYADSVKGRFTISRDTAKNTVYLQMNSLKPEDTAVYYCAAVWYWTQDYDYWGQGTQVTVSS | low polyreactivity
QVQLVESGGGLVQAGGSLRLSCAASGNIFDGNAMGWYRQAPGKERELVAAITSSGDSTYYADSVKGRFTISRDNAKNTVYLLMNSLKPEDTAVYYCAAGYRWGYYYWGQGTQVTVSS | high polyreactivity
QVQLVESGGGLVQAGGSLRLSCAASGNIFDGNSMGWYRQAPGKERELVAAITGRGGGTYYADSVKGRFTISRDNAKNTVYLQMNSLKPEDTAVYYCAAPWVVRRTAYDYWGQGTQVTVSS | high polyreactivity
QVQLVESGGGLVQAGGSLRLSCAASGNIFDIYAMGWYRQAPGKERELVAAISSGGSTYYADSVKGRFTISRDNAKNTVYFQMNSLKPEDTAVYYCAESRVGYYRYEYWGQGTQVTVSS | low polyreactivity
QVQLVESGGGLVQAGGSLRLSCAASGNIFDIYAMGWYRQAPGKERELVAAITSGVRTYYADSVKGLFTISRDNAKNTVYLQMNSVKPEDTAVYYCATPSPHVGLKWEYDYWGQGTQVTVSS | low polyreactivity
QVQLVESGGGLVQAGGSLRLSCAASGNIFDQNAMGWYRQAPAKERELVAAITRSGSTTYYADSVKGRFTISRDNAKNTVYLQMNSLKPEDTAVYYCAAKVYAYRTYKMYYWGEGTQVTVSS | high polyreactivity
QVQLVESGGGLVQAGGSLRLSCAASGNIFDYYAMGWYRQAPGKERELVAAISTGTSTYADSVKGRFTISRDNAKNTVYLQMNSVKPEDTAVYYCASDVGIRPLNYHPYNYWGQGTQVTVSS | low polyreactivity
QVQLVESGGGLVQAGGSLRLSCAASGNIFFSNAMGWYRQAPGKERELLASISQSGGSTYYADSVKGRFTISRDNAKNTVYLQMNSLKPEDTAVYYCAATQVRRGPAWGRDYWGQGTQVTVSS | low polyreactivity
QVQLVESGGGLVQAGGSLRLSCAASGNIFGRYAMGWYRQAPGKERELVAAINWSGGSTNYADSVKGRFTISRDNAKNTVYLQMNSLKPEDTAVYYCAADYYYSLISNQYKYGQRNFDYWGQGTQVTVSS | low polyreactivity
QVQLVESGGGLVQAGGSLRLSCAASGNIFGRYAMGWYRQAPGKERELVAAISWSGGSTFYADSVKGRFTISRDNAKNTVYLQMNSLKPEDTAVYYCAAEYWVYDSYWFDYDYWGQGTQVTVSS | high polyreactivity
QVQLVESGGGLVQAGGSLRLSCAASGNIFGYNAMGWYRQAPGKERELVAAITSDGRTYYADSVKGRFTISRDNAKNTVYLQMNSLKPEDTAVYYCAADSSGYYWFNYWGQGTQVTVSS | low polyreactivity
QVQLVESGGGLVQAGGSLRLSCAASGNIFLSYAMGWYRQAPGKERELVAGISASGGRTYYADSVKGRFTISRDNAKNTVYLQMNSLKPEDTAVYYCATRNTRFHLDYWGQGTQVNVSS | high polyreactivity
QVQLVESGGGLVQAGGSLRLSCAASGNIFLYYAMGWYRQAPGNERELVADIDSSGASTYYADSVKGRFTISRDNAKNTVYFQMNSLKPEDTAVYYCASEFHWWYAGYDYGYWGQGTQVTVSS | low polyreactivity
QVQLVESGGGLVQAGGSLRLSCAASGNIFNGNAMGWYRQAPGKERELVAAIRGNGGITYYADSVKGRFTISRDNAKNTVYLQMNSLKPEDTAVYYCAVRSAWVYGIGRYYWGQGTQVTVSS | high polyreactivity

Sequence | polyreactivity (PSR sort gate)
QVQLVESGGGLVQAGGSLRLSCAASGNIFPYNAMAWYRQAPGKERELVATISSGGSTYYADSVKGRFTISRDNAKNTVYLQMNSLKPEDTAVYYCAARGRYPYRYGYWGQGTQVTVSS | high polyreactivity
QVQLVESGGGLVQAGGSLRLSCAASGNIFRANPMGWYRQAPGKERELVASITVSGGSTNYADSVKGRFTISRDNAKNTVYLQMNSLKPEDTAVYYCAKTLTRSVKFSTVLLGPTPDYYWGQGTQVTVSS | high polyreactivity
QVQLVESGGGLVQAGGSLRLSCAASGNIFRGYTMGWYRQAPGKERELVATITWNGVSTFYADSVKGRFTISRDNAKNTVYLQMNSLKPEDTAVYYCAAYYPSHDYSGFWSDTYEYWGQVTQVTVSS | low polyreactivity
QVQLVESGGGLVQAGGSLRLSCAASGNIFRGYTMGWYRQAPGKERELVAVISFGDGGTYYADSVKGRFTISRDNAKNTVYLQMNSLKPEDTAVYYCATDYQSTSVWGGHFVINPYDYWGQGTQVTVSS | low polyreactivity
QVQLVESGGGLVQAGGSLRLSCAASGNIFRNNAMGWYRQAPGKERELVAAISRGGSTYYADSVKGRFTISRDNAKNTVYLQMNSLKPEDTAVYYCNKYSSRAYNYWGQGTQVTVSS | high polyreactivity
QVQLVESGGGLVQAGGSLRLSCAASGNIFSDNAMGWYRQAPGKESELVAAITSGGSTNYADSVKGRFTISRDNAKNTVYLQMNSLKPEDTAVYYCAADISYRHFLFDYWGQGTQVTVSS | low polyreactivity
QVQLVESGGGLVQAGGSLRLSCAASGNIFSDYTMGWYRQAPGKERELVAAISGDGGTTYYADSVKGRFTISRDNAKNTVYLQMNSLKPEDTAVYYCAADGYYDAYDQFFIVYYEYDYWGQGTQVTVSS | low polyreactivity
QVQLVESGGGLVQAGGSLRLSCAASGNIFSSNAMGWYRQAPGKERELVAAISASGGNTYYSDSVKGRFTISRDNAKNTVYLQMNSLKPEDTAFYYCNAYRGGYLRRGYYYWGQGTQVTVSS | high polyreactivity
QVQLVESGGGLVQAGGSLRLSCAASGNIFSSNDMGWYRQAPGKQRELVAANTRSGGSTYYADSVKGRFTISRDNAKNTLYIQMNSHTPEDTAVYDGAGRPYPRNSWGYDDWGQGTQVTVSS | high polyreactivity
QVQLVESGGGLVQAGGSLRLSCAASGNIFSSYVMGWYRHAPGKERELVAAISSRGGSTYYADSVKGRFTISRDNAKNTVYLQMNSLKPEDTAVYYCAARYLSWYDWGQGTQVTVSS | high polyreactivity
QVQLVESGGGLVQAGGSLRLSCAASGNIFSWYAMGWYRQAPGKERELVAAITSGGITYYADSVKGRFTISRDNAKNTVYLQMNSLKPEDTAVYYCNIDVGFTRPLYYWGQGTQVTVSS | low polyreactivity
QVQLVESGGGLVQAGGSLRLSCAASGNIFTGYMGWYRQAPGKERELVAAISRSGGRTHYADSVKGRFTISRDNAKNTVYLQMNSLKPEDTAVYYCNADVRRYTAFTKDAYAFNYWGQGTQVTVSS | high polyreactivity
QVQLVESGGGLVQAGGSLRLSCAASGNIFTLNTSGCYRQAPGKERELVARITSGDRKYYADSVKGRFTISRDNAKNTVYLQMNSLKPEDTAVYYCAARRPAYYSFWVTGYNYWGQGTQVTVSS | high polyreactivity
QVQLVESGGGLVQAGGSLRLSCAASGNIFTNNAMGWYRQAPGKEREFVAAITRSGGSTSYADSVKGRFTISRDNAKNTVYLQMISLNPEDTAVYYCAATGYRYRRIYGFDYWGQGTQVTVSS | high polyreactivity
QVQLVESGGGLVQAGGSLRLSCAASGNIFTRNAMGWYRQAPGKVRELVASITRGGSTYADSVKGLFTISRDNAKNTVYLQMNSLKPEDTAVYYCAASCYYSSHMDYWGQGTQVTVSS | high polyreactivity
QVQLVESGGGLVQAGGSLRLSCAASGNIFVFYVMGWYRQAPGKERELVASISSTGNTYYADSVKGRFTISRENAMNTVYLQLNRLKPEDTAVYYCAADSHQNVSGWLRWPRMDYWGQGTQVTVSA | low polyreactivity
QVQLVESGGGLVQAGGSLRLSCAASGNIFVLNPMGWYRQATCKETELVAAISRSGVRTYYADSVKGRFTISRDNAKNTVYLQMNSLKPEDTAVYYCAAVYKRLQPYGYWGQGTQETVSS | high polyreactivity
QVQLVESGGGLVQAGGSLRLSCAASGNIFVWNDMGWYRQAPGKERELVAAISLSGSSTYYADSVKGRFTISRDNAKNTVYLQMNSLKPEDTAVYYCATTRRVPGEYWGQGTQVTVSS | high polyreactivity
QVQLVESGGGLVQAGGSLRLSCAASGNIFWGNAMGWYRQAPGKERELVAAITSIDSSTYYADSVKGRFTISRDNAKNTVYLQMNSLKPEDTAVYYCAADGDWYGYIWQSDDGYDSWGQGTQVTVSS | low polyreactivity
QVQLVESGGGLVQAGGSLRLSCAASGNIFWRNAMGWYRQAPGKERELVAAISRRAVSTYYADSVKGRFTISRDNAKNTVYLQMNSLKPEDTAVYYCAARLGGENDYWGQGTQVTVSS | high polyreactivity
